This note sets out measurements from article PMC7617285, “Dehydrogenase versus oxidase function: the interplay between substrate binding and flavin microenvironment” (ACS catalysis, 2025).

For the series, the system named is T1, COc1cc(CO)ccc1O.
T1 construct: SUMO tag cleaved for crystals; non-covalent FAD
Nature of the series: purified protein. The format is biochemical, Novosphingobium sp. As to conditions: molecular oxygen as acceptor, 35 °C, 50 mM Tris-HCl pH 9.0, 300 mM NaCl.

With “nsVAO (vanillyl-alcohol oxidase from Novosphingobium sp.) (Novosphingobium sp.)”, the Michaelis constant (Km) stood at 207 ± 28 µM, the kcat turned out to be 0.29 ± 0.01 s⁻¹ and the kcat/Km turned out to be 1400 M⁻¹ s⁻¹.
For “nsVAO (vanillyl-alcohol oxidase from Novosphingobium sp.) (Novosphingobium sp.; T181D)”, the Michaelis-Menten constant (Km) turned out to be 203 ± 22 µM, the turnover number (kcat) was determined as 0.28 ± 0.01 s⁻¹ and the kcat/Km came to 1400 M⁻¹ s⁻¹.

A word on the Km: it is the concentration of substrate that gives half-maximal velocity. The term kcat denotes the number of substrate molecules converted per active site and unit of time at saturation. The kcat/Km is the second-order rate constant that governs catalysis at low substrate concentration.
